Experimental data from publication PMC9639671 (DNA repair, 2022).
Substitutions are numbered along the chain they refer to. In names and notes the source's numbering stands.

B1: wild-type S. cerevisiae Mlh1-Pms1 (complex)
chain 1: MSLRIKALDASVVNKIAAGEIIISPVNALKEMMENSIDANATMIDILVKEGGIKVLQITDNGSGINKADLPILCERFTTSKLQKFEDLSQIQTYGFRGEALASISHVARVTVTTKVKEDRCAWRVSYAEGKMLESPKPVAGKDGTTILVEDLFFNIPSRLRALRSHNDEYSKILDVVGRYAIHSKDIGFSCKKFGDSNYSLSVKPSYTVQDRIRTVFNKSVASNLITFHISKVEDLNLESVDGKVCNLNFISKKSISPIFFINNRLVTCDLLRRALNSVYSNYLPKGNRPFIYLGIVIDPAAVDVNVHPTKREVRFLSQDEIIEKIANQLHAELSAIDTSRTFKASSISTNKPESLIPFNDTIESDRNRKSLRQAQVVENSYTTANSQLRKAKRQENKLVRIDASQAKITSFLSSSQQFNFEGSSTKRQLSEPKVTNVSHSQEAEKLTLNESEQPRDANTINDNDLKDQPKKKQKLGDYKVPSIADDEKNALPISKDGYIRVPKERVNVNLTSIKKLREKVDDSIHRELTDIFANLNYVGVVDEERRLAAIQHDLKLFLIDYGSVCYELFYQIGLTDFANFGKINLQSTNVSDDIVLYNLLSEFDELNDDASKEKIISKIWDMSSMLNEYYSIELVNDGLDNDLKSVKLKSLPLLLKGYIPSLVKLPFFIYRLGKEVDWEDEQECLDGILREIALLYIPDMVPKVDTSDASLSEDEKAQFINRKEHISSLLEHVLFPCIKRRFLAPRHILKDVVEIANLPDLYKVFERC
chain 2: MTQIHQINDIDVHRITSGQVITDLTTAVKELVDNSIDANANQIEIIFKDYGLESIECSDNGDGIDPSNYEFLALKHYTSKIAKFQDVAKVQTLGFRGEALSSLCGIAKLSVITTTSPPKADKLEYDMVGHITSKTTTSRNKGTTVLVSQLFHNLPVRQKEFSKTFKRQFTKCLTVIQGYAIINAAIKFSVWNITPKGKKNLILSTMRNSSMRKNISSVFGAGGMRGLEEVDLVLDLNPFKNRMLGKYTDDPDFLDLDYKIRVKGYISQNSFGCGRNSKDRQFIYVNKRPVEYSTLLKCCNEVYKTFNNVQFPAVFLNLELPMSLIDVNVTPDKRVILLHNERAVIDIFKTTLSDYYNRQELALPKRMCSQSEQQAQKRLKTEVFDDRSTTHESDNENYHTARSESNQSNHAHFNSTTGVIDKSNGTELTSVMDGNYTNVTDVIGSECEVSVDSSVVLDEGNSSTPTKKLPSIKTDSQNLSDLNLNNFSNPEFQNITSPDKARSLEKVVEEPVYFDIDGEKFQEKAVLSQADGLVFVDNECHEHTNDCCHQERRGSTDTEQDDEADSIYAEIEPVEINVRTPLKNSRKSISKDNYRSLSDGLTHRKFEDEILEYNLSTKNFKEISKNGKQMSSIISKRKSEAQENIIKNKDELEDFEQGEKYLTLTVSKNDFKKMEVVGQFNLGFIIVTRKVDNKYDLFIVDQHASDEKYNFETLQAVTVFKSQKLIIPQPVELSVIDELVVLDNLPVFEKNGFKLKIDEEEEFGSRVKLLSLPTSKQTLFDLGDFNELIHLIKEDGGLRRDNIRCSKIRSMFAMRACRSSIMIGKPLNKKTMTRVVHNLSELDKPWNCPHGRPTMRHLMELRDWSSFSKDYEI
B2: Mlh1-K54C-Pms1 mutant complex (complex, S. cerevisiae)
chain 1: B1 chain 1 with K54C
chain 2: B1 chain 2

Molecular target: S. cerevisiae Msh2-Msh6 (S. cerevisiae, UniProt P25847 1-964; Q03834 1-1242)
Sequence (P25847 whole entry, chain 1 of 2): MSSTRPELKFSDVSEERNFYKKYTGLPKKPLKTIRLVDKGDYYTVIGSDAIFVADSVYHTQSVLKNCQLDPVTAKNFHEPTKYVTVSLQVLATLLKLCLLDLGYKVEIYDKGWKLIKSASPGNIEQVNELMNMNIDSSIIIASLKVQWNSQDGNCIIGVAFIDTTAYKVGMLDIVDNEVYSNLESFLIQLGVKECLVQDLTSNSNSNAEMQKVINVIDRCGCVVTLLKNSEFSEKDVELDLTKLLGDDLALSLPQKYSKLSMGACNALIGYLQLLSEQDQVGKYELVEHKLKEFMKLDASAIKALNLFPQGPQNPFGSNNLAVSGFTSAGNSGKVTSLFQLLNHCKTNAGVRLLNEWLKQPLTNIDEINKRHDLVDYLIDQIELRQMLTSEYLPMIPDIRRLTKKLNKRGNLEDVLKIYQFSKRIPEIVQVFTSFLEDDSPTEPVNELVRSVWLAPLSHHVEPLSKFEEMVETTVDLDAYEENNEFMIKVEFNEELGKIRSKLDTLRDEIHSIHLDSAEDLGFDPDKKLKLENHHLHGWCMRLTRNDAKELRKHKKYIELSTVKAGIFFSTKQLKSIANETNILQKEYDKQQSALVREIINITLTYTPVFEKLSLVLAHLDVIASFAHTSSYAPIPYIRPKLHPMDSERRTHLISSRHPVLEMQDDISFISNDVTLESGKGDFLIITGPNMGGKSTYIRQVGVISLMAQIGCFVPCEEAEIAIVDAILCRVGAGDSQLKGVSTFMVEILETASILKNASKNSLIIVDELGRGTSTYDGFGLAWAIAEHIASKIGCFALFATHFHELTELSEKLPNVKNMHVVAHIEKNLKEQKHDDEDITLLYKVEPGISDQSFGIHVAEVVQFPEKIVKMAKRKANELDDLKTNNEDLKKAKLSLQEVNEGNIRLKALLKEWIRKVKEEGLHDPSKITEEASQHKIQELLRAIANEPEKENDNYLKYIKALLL
Sequence (Q03834 whole entry, chain 2 of 2): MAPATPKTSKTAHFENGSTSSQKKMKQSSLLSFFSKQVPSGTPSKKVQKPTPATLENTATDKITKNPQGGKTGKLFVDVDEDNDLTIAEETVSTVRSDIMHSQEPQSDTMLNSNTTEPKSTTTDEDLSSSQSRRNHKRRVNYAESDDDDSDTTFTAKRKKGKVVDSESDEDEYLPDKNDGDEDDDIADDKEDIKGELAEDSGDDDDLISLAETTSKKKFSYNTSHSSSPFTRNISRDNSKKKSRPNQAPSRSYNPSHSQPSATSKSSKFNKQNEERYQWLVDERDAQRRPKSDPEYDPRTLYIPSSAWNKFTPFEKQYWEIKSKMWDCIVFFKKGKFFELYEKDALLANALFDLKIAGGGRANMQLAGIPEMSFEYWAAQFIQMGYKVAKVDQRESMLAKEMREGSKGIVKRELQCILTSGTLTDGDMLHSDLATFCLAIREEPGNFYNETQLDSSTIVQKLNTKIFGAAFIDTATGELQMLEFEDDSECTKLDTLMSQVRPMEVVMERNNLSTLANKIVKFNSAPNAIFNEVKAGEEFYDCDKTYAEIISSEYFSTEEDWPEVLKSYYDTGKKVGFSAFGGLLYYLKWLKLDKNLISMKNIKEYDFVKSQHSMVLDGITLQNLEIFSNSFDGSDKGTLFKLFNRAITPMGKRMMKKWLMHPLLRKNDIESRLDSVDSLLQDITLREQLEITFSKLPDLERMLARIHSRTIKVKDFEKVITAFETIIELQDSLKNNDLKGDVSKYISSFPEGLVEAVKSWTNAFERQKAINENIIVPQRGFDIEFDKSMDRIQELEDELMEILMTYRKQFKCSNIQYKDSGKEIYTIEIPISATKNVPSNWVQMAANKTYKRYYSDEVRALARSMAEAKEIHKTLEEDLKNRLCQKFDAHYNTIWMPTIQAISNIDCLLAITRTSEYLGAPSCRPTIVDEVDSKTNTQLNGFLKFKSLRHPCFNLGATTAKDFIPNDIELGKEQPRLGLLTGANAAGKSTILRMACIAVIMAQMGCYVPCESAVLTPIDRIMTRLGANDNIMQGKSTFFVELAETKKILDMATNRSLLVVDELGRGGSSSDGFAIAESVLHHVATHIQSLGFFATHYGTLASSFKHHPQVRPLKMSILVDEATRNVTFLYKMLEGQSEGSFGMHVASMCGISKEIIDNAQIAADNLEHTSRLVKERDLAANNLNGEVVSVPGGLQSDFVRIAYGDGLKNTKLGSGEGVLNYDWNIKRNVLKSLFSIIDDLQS
Test: SPR

Row | Binder | binding result
1 | B1 | binds
2 | B2 | binds
